From the nanobody polyreactivity screen of Harvey et al. (2022)

Experiment: yeast display, Sf9 membrane polyspecificity reagent, FACS + sequencing; frameworks hold sequencing errors
Procedure, shortened: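 Using colony PCR, genes from sorted yeast display clones were amplified, then sequenced on MiSeq at 2 × 250 and filtered by CDR length. The clones had been stained with 10% biotinylated, detergent-solubilized Sf9 membrane reagent for 1 hour at 4 °C and sorted by FACS into low and high (top ~1%) gates on anti-HA and streptavidin fluorescence. Polyreactivity labels come from the gate of origin.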

Row | Sequence | polyreactivity (PSR sort gate)
1 | QVQLVESGGGLVQAGGSLRLSCAASGFTFSHYAMGWYRQAPGKERELVAAISWGGGSTYYADSVKGRFTISRDNAKNTVYLQMNSLKPEDTAVYYCARDVVYRGYYYGAFVYWGQGTQVTVSS | low polyreactivity
2 | QVQLVESGGGLVQAGGSLRLSCAASGFTFSHYAMGWYRQAPGKERELVAAITASGGNTYYADSVKGRFTISRDNAKNTVYLQMNSLKPEDTAVYYCNAVSLKFTRKFDYWGQGTQVTVSS | high polyreactivity
3 | QVQLVESGGGLVQAGGSLRLSCAASGFTFSKYAMGWYRPAPGKERELVAAISGSGGSTYYADSVKGRFTISRDNAKITVYLQMNSLKPEDTAVYYCAADGPGKYDYWGQGTQVTVSS | high polyreactivity
4 | QVQLVESGGGLVQAGGSLRLSCAASGFTFSMYGMGWYRKAPGKERELVAAIRSGGSTNYADSVKGRFTISRDNAKNTVYLQMNSLKPEDTAVYYCAADVIPDGVKKPRMYYWGQGTQVTVSS | low polyreactivity
5 | QVQLVESGGGLVQAGGSLRLSCAASGFTFSNYAMGWYRQAPGKERELVAAISRSGGSTYYADSVKGRFTISRDNAKNTVYLKMNSLKPEDTAVYYCNAVRYHARSGWSDYWGQGTQVTVSS | high polyreactivity
6 | QVQLVESGGGLVQAGGSLRLSCAASGFTFSNYDMGWYRQAPGKEREFVADIDWSGGTTYYADSVKGRFTISRDNAKNTVYLQMNSLKPEDTAVYYCATDGYRALSYKYDYWGQGTQVTVSS | low polyreactivity
7 | QVQLVESGGGLVQAGGSLRLSCAASGFTFSPNAMGWYRQAPGKERELVAAIDWSGDRTYYADSVKGRFTISRDNAKNTVYLQMNSLKPEDTAVEYCNVVRRSPGDYSYYYWGQGTQVTVSS | low polyreactivity
8 | QVQLVESGGGLVQAGGSLRLSCAASGFTFSPNAMGWYRQAPGKERELVAAITTTGGSTHYADSVKRRFTISRDHAKNTVYLQMHSLKQEDTAVYYCAADWYFEYPTAFHYEYWGQGTQVTVSS | high polyreactivity
9 | QVQLVESGGGLVQAGGSLRLSCAASGFTFSQYAMGWYRQAPGKERELVAAINSRGGSTYYADSVKGRFTISRDNAKNTVYLQMNSLKPEDTAVYYCNAVISGYPYEYDYWGQGTQVTVSS | high polyreactivity
10 | QVQLVESGGGLVQAGGSLRLSCAASGFTFSRNAMGWYRQAPGKERELVAAISQSGGSTYYADSVKGRFTISRDNAKNTVYLQMHSLKPEDTAVYYCAAVGRLARRDYWGQGTQVTVSS | high polyreactivity
11 | QVQLVESGGGLVQAGGSLRLSCAASGFTFSRYAMGWYRQAPGKERELVAAIRLRDGITYYADSVKGRFTISRDNAKNTVYLQMISLKPEDTAVYYCNAVNRTPVSQLDYWGQGTQVTVSS | high polyreactivity
12 | QVQLVESGGGLVQAGGSLRLSCAASGFTFSRYAMGWYRQAPGKERELVAAISKSTDSTYYADSVKGRFTISRDNAKNTVYLQMNSLKPEDTAVYYCAAVQRYKGLQDDSWGQGTQVTVSS | high polyreactivity
13 | QVQLVESGGGLVQAGGSLRLSCAASGFTFSRYAMGWYRQAPGKERELVAAISYSGGTTYYADSVKGRFTISRDNAKNTVYLQMNSLKPEDTAVYYCNARARGQLVGHYYYWGQGTQVTVSS | high polyreactivity
14 | QVQLVESGGGLVQAGGSLRLSCAASGFTFSRYAMGWYRQAPGKERELVAAITLGGGNTYYADSVKGRFTISRDNAKYSVYLQMNSLKREDTSVYYCNAKFGIFGYRSGGYDYWGEGTQVTVSS | high polyreactivity
15 | QVQLVESGGGLVQAGGSLRLSCAASGFTFSRYTMGWYRQAPGKERELDAAINRRGGSTYYADSVKGRFTISRDNAKNTVYLQMNSLKPEDTAVYYCAATYTVRSGNGIANDYWGQGTQVTVSS | high polyreactivity
16 | QVQLVESGGGLVQAGGSLRLSCAASGFTFSRYTMGWYRQAPGKERELVAAITSVGSTYYADSVKGRFTISRDNAKNTVYLQMNSLKPEDTAVYYCARTYSTWYYYWGQGTQVTVSS | high polyreactivity
17 | QVQLVESGGGLVQAGGSLRLSCAASGFTFSSNAMGWYRQAPGKERELVAAISFNSTSTYYADSVKGRFTISRDNAKNTVYLQMNSLKPEDTAVYYCAADVPRVQSEPEYDYWGQGTQVTVSS | low polyreactivity
18 | QVQLVESGGGLVQAGGSLRLSCAASGFTFSSNAMGWYRQAPGKERELVAAISSSGARTYYADSVKGRFTISRDNAKNTVYLQMNSLKPEDTAVYYCNARGLAGRKGYDYWGHGTQVTVSS | high polyreactivity
19 | QVQLVESGGGLVQAGGSLRLSCAASGFTFSTNAMGWYRQAPGKETELVAGITSSGGNTYYADSVKGRFTISRDNAKNTVYLQMNSLKPEDTAVYYCAKRRNYVAYDYWGQGTQVTVSS | high polyreactivity
20 | QVQLVESGGGLVQAGGSLRLSCAASGFTFSTYAMGWYRQAPGKERELVAGITRRGGSTYYADSVKGRFTISRDNAKNTVYLQMNSLKPEDTAVYYCARDLLRVSSSRYNSWGQGTQVTVSS | high polyreactivity
21 | QVQLVESGGGLVQAGGSLRLSCAASGFTFSYSAMGWYRPAPGKERELVAAISSGGRTYYADSVKGRFTISRDNAKNTVYLQMNSLKPEDTAVYYCNAEPDQYTLRSITNDEDYWGQGTQVTVSS | low polyreactivity
22 | QVQLVESGGGLVQAGGSLRLSCAASGFTFSYYAMGWYRQAPGKERELVAAISRSGGSPYYADSVKGRFTISRDNAKYTVYLQMNSLKPADTAVYYCATDLSYRHGYWGQGTQVTVSS | high polyreactivity

Row | Sequence | polyreactivity (PSR sort gate)
23 | QVQLVESGGGLVQAGGSLRLSCAASGFTFSYYAMGWYRQAPGKERELVAAITFTGGSTYYADSVKGRFTISRDNAKNTVYLQMNSLKPEDTAVYYCAADWYYGDEYEYWGQGTQVTVSS | high polyreactivity
24 | QVQLVESGGGLVQAGGSLRLSCAASGFTFSYYAMGWYRQAPGKERELVASISRSGNTYYADSVKGRFTISRDNAKNTFYLQMNSLKPEDTAVYYCAAKRKSYYSYNFDYWGQGTQVTVSS | high polyreactivity
25 | QVQLVESGGGLVQAGGSLRLSCAASGFTFSYYDMGWYRQAPGTERELVAAISWSGGSTYYADSVKGRFTISRDNAKITVYLQMNSLKPEDTAVYYCNTDTDTTSSGYVYWGQGTQVTVSS | low polyreactivity
26 | QVQLVESGGGLVQAGGSLRLSCAASGFTFTAYAMGWYRQAPGKERELVAAINWSGSRTYYADSVKGRFTISRDNAKNNVYLKMNSLKPEDTAVYYCNTATSKSSYRHYDYWGQGTQVTVSS | high polyreactivity
27 | QVQLVESGGGLVQAGGSLRLSCAASGFTFTFNAMGWYRQAPGKERELVAGITSGTSTNYADSVKGRFTISRDNAKNTVYLQMNSLKPEDTAVYYCAADLYLTSGSQGVYVRYDYWGQGTQVTVSS | low polyreactivity
28 | QVQLVESGGGLVQAGGSLRLSCAASGFTFTGNAMGWYRQAPGKERELVAAISRSGGSTFYADSVKGRFTISRDNAKNTVYLQMNSLKPEDTAVYYCAARRRTLNYLYDYWGQGTQVTVSS | high polyreactivity
29 | QVQLVESGGGLVQAGGSLRLSCAASGFTFTGYTMGWYRQAPGKQRELVATISGSGGNTYYADSVKGRFTISRDNAKNTVYLQMNSLKPEDTAVYYCARRRSGPRVLYYYWGQGTQVTVSS | low polyreactivity
30 | QVQLVESGGGLVQAGGSLRLSCAASGFTFTHYAMGWYRQAPGKERELVAAISTSGGSTYYADSVKGRFTISRDNAKNTVYLQMNSLKPEDTAVYYCAARRDGWVQWGYYYWGQGTQVTVSS | low polyreactivity
31 | QVQLVESGGGLVQAGGSLRLSCAASGFTFTIYAMGWYRQAPGKERELVATISGRAGRTYYADSVKGRFTISRDNAKNTVYLQITSRKPEDSAVYYCNAGQWRYPGLYYYWGHGTQVTVSS | high polyreactivity
32 | QVQLVESGGGLVQAGGSLRLSCAASGFTFTIYTMGWYRQAPGKERELVAAISRRGGSTYYADSVKGRFTISRDNAKNTVYLQMNSLNPEDTAVYYCAAYVPQGYKLYYWGQGTQVTGSS | high polyreactivity
33 | QVQLVESGGGLVQAGGSLRLSCAASGFTFTKNAMGWYRQAPGKEREMVAAITWRGGSTYYADSVKGRFTISRDNAKNTVYLQMNSLKPEDTAVYYCAADGGSLYDWGQGTQVTVSS | low polyreactivity
34 | QVQLVESGGGLVQAGGSLRLSCAASGFTFTKYAMGWYRQAPVKERELVADITSGTSTYNADSVKGRFTISRDNAKNTVYLQMNSLKPEDTAVYYCAAPLYGRYSYGYWGQGTQVTVSS | high polyreactivity
35 | QVQLVESGGGLVQAGGSLRLSCAASGFTFTPYAMGWYRQAPGKERELVAAISWSDVRTYYADSVKGRFTISRDNAKNTVFLQMNSLKPEDTAVYYCAAEFYFYSWSEYDYWGQGTQVTVSS | high polyreactivity
36 | QVQLVESGGGLVQAGGSLRLSCAASGFTFTRNTMGWYRQAPGKERELVADINWDDGSTNYADSVKGRFTISRDNAKNTVYLQMNSLKPEDTAVYYCAADYYFYYLYPSSNLYNYWGQGTQVTVSS | low polyreactivity
37 | QVQLVESGGGLVQAGGSLRLSCAASGFTFTRYAMGWYRQAPGKERELVAAISSCGDTYYADSVKGRFTISRDNAKNTVYLQMNSLKPEDTAVYYCAADQSSLDYGNDYWGQGTQVTVSS | low polyreactivity
38 | QVQLVESGGGLVQAGGSLRLSCAASGFTFTRYAMGWYRQAPGKERELVAAISWSGGSTYYADSVKGRFTISRDNAKNTVYLQMNSLKPEDTAVYYCAKRGTVRQGGYGYWGQGTLVTVSS | high polyreactivity
39 | QVQLVESGGGLVQAGGSLRLSCAASGFTFTSYAMGWYRQAPGKERELVAAITWDGGRTYYADSVKGRFTISRDNSKNTVYLQMNSLKPEDTAVYYCAKVYNPRQYDYWGQGTQVTVSS | low polyreactivity
40 | QVQLVESGGGLVQAGGSLRLSCAASGFTFTTNAMGWYRQAPGKEREFVAAISRSGGSTDYADSVKGRFTISRDNAKNTVYLQMNSLKPEDTAVYYCNADPRLRQTRDYWGHGTQVTVSS | high polyreactivity
41 | QVQLVESGGGLVQAGGSLRLSCAASGFTFTTYVMGWYRQAPGKERELVAAISRRGTSTRYADSVKGRFTISRDNAKITVYLQMNSLKTEDTAVYFCAADRPYSIVPYDYWGQGTQVTVSS | high polyreactivity
42 | QVQLVESGGGLVQAGGSLRLSCAASGFTFTVYAMGWYRPAPGKERELVAVITSGDGTYYADSVKGRFTISRDNAKNTVYLQMNSLKPEDTAVYYCNARRYSSFRYRFAYDYWGQGTQVTVSS | low polyreactivity
43 | QVQLVESGGGLVQAGGSLRLSCAASGFTFTVYAMGWYRQAPGKERELVAVITAGDGTYYADSVKGRFTISRDNAKNTVYLQMNSLKPEDTAVYYCIALRYSSFRYLFAYDYWGQGTQVTVSS | low polyreactivity
